Reference: US20260201033A1 (LTZ THERAPEUTICS, published 2026)
Like-named read-outs stand apart in the source and are kept apart here.

Assays:
EGFR on DLD-1 cells = EGFR on DLD-1 cells (UniProt P00533 25-1210, limits assumed); assay: cell-based or functional assay
[1] = target: T1, human EGFR (ACROBiosystems, Cat #: EGR-H5222) (human, UniProt P00533 25-645); assay: ELISA, plate coated with human EGFR
T1 construct: Bought protein; also called recombinant human EGFR protein

[2] = target: T2, Human CLEC5A His Tag protein (ACROBiosystems, Cat #: CLA-H5243) (human, UniProt Q9NY25 28-188, limits assumed); assay: ELISA, plate coated with human CLEC5A
T2 construct: Bought protein with a His tag; also called recombinant human CLEC5A protein
T2 sequence: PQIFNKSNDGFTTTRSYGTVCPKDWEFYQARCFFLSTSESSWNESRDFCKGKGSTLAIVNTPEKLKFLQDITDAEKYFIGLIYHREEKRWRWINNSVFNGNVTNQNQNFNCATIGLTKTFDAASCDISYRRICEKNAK

[3] = target: T3, Human C-type lectin domain family 5 member A (CLEC5A), endogenous on human monocytes and M0 macrophages (human, UniProt Q9NY25 1-188); assay: flow cytometry on human M0 macrophages, anti-human IgG PE
T3 construct: Endogenous CLEC5A on primary human monocytes and monocyte-derived M0 macrophages; also called MDL-1; M0 macrophages (CLEC5A+) cells
T3 sequence: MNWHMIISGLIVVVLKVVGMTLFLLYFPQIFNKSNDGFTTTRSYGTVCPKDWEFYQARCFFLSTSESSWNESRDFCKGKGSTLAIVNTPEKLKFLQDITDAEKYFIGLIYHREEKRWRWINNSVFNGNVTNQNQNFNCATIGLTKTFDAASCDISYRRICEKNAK

EpCAM on DLD-1 cells [4] = target: T4, EpCAM on DLD-1 cells (human, UniProt P16422 24-314); assay: cell-based or functional assay
T4 sequence (looked up): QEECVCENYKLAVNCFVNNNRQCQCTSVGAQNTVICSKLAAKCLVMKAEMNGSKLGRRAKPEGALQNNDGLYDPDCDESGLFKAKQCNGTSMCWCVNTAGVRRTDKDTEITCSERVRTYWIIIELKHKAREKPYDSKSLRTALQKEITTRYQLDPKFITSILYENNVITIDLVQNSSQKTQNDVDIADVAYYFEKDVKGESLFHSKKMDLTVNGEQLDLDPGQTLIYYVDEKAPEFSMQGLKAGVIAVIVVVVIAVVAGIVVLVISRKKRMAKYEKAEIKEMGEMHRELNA

EpCAM on DLD-1 cells [5] = target: T4, EpCAM on DLD-1 cells; assay: flow cytometry on DLD-1 cells (EPCAM+), anti-human IgG PE
[6] = target: T5, mouse CLEC5A (R&D Systems, Cat #: 8438-CL-050) (mouse, UniProt Q9R007 26-190, limits assumed); assay: ELISA, plate coated with mouse CLEC5A
T5 construct: Bought protein; also called recombinant mouse CLEC5A protein
T5 sequence: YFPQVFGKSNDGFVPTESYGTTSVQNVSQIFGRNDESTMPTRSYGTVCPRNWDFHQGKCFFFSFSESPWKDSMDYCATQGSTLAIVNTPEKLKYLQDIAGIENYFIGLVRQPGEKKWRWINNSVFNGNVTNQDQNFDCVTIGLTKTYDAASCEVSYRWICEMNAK

[7] = target: T2, Human CLEC5A His Tag protein …; assay: ELISA, plate coated with human CLEC5A; remark: listed apart in the source
[8] = target: T3, Human C-type lectin domain family 5 …; assay: flow cytometry on human M0 macrophages, anti-human IgG PE; remark: listed apart in the source
[9] = target: T3, Human C-type lectin domain family 5 …; assay: flow cytometry on human M0 macrophages (CLEC5A+), anti-human IgG PE, MFI (PE)
[10] = target: T6, recombinant human CLEC5A, His Tag (ACROBiosystems, Cat #: NC1-H52H4) (human, UniProt Q9NY25 28-188); assay: BLI, antibody 10 ug/ml captured on anti-human IgG Fc probe, analyte hCLEC5a; table row hCLEC5a 0.78 nM; all four rows print the same value
T6 construct: Analyte of the BLI assay; Its catalogue number differs from that of the ELISA antigen; also called human CLEC5A (BLI analyte)
T6 sequence: T2 sequence

[11] = target: T6, recombinant human CLEC5A, His Tag …; assay: BLI, antibody 10 ug/ml captured on anti-human IgG Fc probe, analyte hCLEC5a; table row hCLEC5a 1.56 nM; all four rows print the same value
[12] = target: T6, recombinant human CLEC5A, His Tag …; assay: BLI, antibody 10 ug/ml captured on anti-human IgG Fc probe, analyte hCLEC5a; table row hCLEC5a 3.12 nM; all four rows print the same value
[13] = target: T6, recombinant human CLEC5A, His Tag …; assay: BLI, antibody 10 ug/ml captured on anti-human IgG Fc probe, analyte hCLEC5a; table row hCLEC5a 6.25 nM; all four rows print the same value

B1: EGFR2/5C7 (2+2 A) Fc-optimized (bispecific antibody, human IgG1, kappa)
heavy: QVQLQQSGAEVKKPGSSVKVSCKASGYTFTNYYIYWVRQAPGQGLEWIGGINPTSGGSNFNEKFKTRVTITADESSTTAYMELSSLRSEDTAFYFCTRQGLWFDSDGRGFDFWGQGTTVTVSSASTKGPSVFPLAPSSKSTSGGTAALGCLVKDYFPEPVTVSWNSGALTSGVHTFPAVLQSSGLYSLSSVVTVPSSSLGTQTYICNVNHKPSNTKVDKKVEPKSCDKTHTCPPCPAPELLAGPSVFLFPPKPKDTLMISRTPEVTCVVVDVSHEDPEVKFNWYVDGVEVHNAKTKPREEQYNSTYRVVSVLTVLHQDWLNGKEYKCKVSNKALPLPEEKTISKAKGQPREPQVYTLPPSRDELTKNQVSLTCLVKGFYPSDIAVEWESNGQPENNYKTTPPVLDSDGSFFLYSKLTVDKSRWQQGNVFSCSVMHEALHNHYTQKSLSLSPGK
light: DIQMTQSPSSLSASVGDRVTITCRSSQNIVHSNGNTYLDWYQQTPGKAPKLLIYKVSNRFSGVPSRFSGSGSGTDFTFTISSLQPEDIATYYCFQYSHVPWTFGQGTKLEIKRTVAAPSVFIFPPSDEQLKSGTASVVCLLNNFYPREAKVQWKVDNALQSGNSQESVTEQDSKDSTYSLSSTLTLSKADYEKHKVYACEVTHQGLSSPVTKSFNRGECGGGGSGGGGSGGGGSAIVMTQTPSSKSVPVGDTVTINCQASESVDRNNRLAWFQQKPGQPPKLLIYTTSTLASGVPSRFKGSGSGTHFTLTISDVVPDDAATYYCAGYRGAHTDGDAFGCGTEVVVKGGGGSGGGGSGGGGSGGGGSQSLEESGGDLVKPGASLTLTCTASGFSFSRSSYMCWVRQAPGKCLEWIGCLSVGDGHTYYASWAKGRFTISKTSSTSVTLQMTRLTAADTATYFCARAPSYSGDGGHGYDLWGPGTLVTVSS
notes: also called EGFR/CLEC5A (2+2 A) Fc-optimized antibody with EGFR portion of Nimotuzumab (EGFR2)
In the case of B1, the “IC50 (nM), DLD-1 cell killing by M0 macrophages” value (from here on “IC50 (nM), DLD-1 cell killing”) (EGFR on DLD-1 cells) is reported as 0.00471 nM, the EC50 [1] is reported as 0.12 µg/mL and the EC50 [2] is reported as 0.081 µg/mL. For the same binder, the EC50 [3] was 19.5 nM.

B2: EpCAM/5C7 (2+2 A) Fc-optimized (bispecific antibody, human IgG1, kappa)
heavy: QVQLQQSGAELVRPGTSVKVSCKASGYAFTNYLIEWVKQRPGQGLEWIGVINPGSGGTNYNEKFKGKATLTADKSSSTAYMQLSSLTSDDSAVYFCARDGPWFAYWGQGTLVTVSAASTKGPSVFPLAPSSKSTSGGTAALGCLVKDYFPEPVTVSWNSGALTSGVHTFPAVLQSSGLYSLSSVVTVPSSSLGTQTYICNVNHKPSNTKVDKKVEPKSCDKTHTCPPCPAPELLAGPSVFLFPPKPKDTLMISRTPEVTCVVVDVSHEDPEVKFNWYVDGVEVHNAKTKPREEQYNSTYRVVSVLTVLHQDWLNGKEYKCKVSNKALPLPEEKTISKAKGQPREPQVYTLPPSRDELTKNQVSLTCLVKGFYPSDIAVEWESNGQPENNYKTTPPVLDSDGSFFLYSKLTVDKSRWQQGNVFSCSVMHEALHNHYTQKSLSLSPGK
light: NIVMTQSPKSMSMSVGERVTLTCKASENVVTYVSWYQQKPEQSPKLLIYGASNRYTGVPDRFTGSGSATDFTLTISSVQAEDLADYHCGQGYSYPYTFGGGTKLEIKRTVAAPSVFIFPPSDEQLKSGTASVVCLLNNFYPREAKVQWKVDNALQSGNSQESVTEQDSKDSTYSLSSTLTLSKADYEKHKVYACEVTHQGLSSPVTKSFNRGECGGGGSGGGGSGGGGSAIVMTQTPSSKSVPVGDTVTINCQASESVDRNNRLAWFQQKPGQPPKLLIYTTSTLASGVPSRFKGSGSGTHFTLTISDVVPDDAATYYCAGYRGAHTDGDAFGCGTEVVVKGGGGSGGGGSGGGGSGGGGSQSLEESGGDLVKPGASLTLTCTASGFSFSRSSYMCWVRQAPGKCLEWIGCLSVGDGHTYYASWAKGRFTISKTSSTSVTLQMTRLTAADTATYFCARAPSYSGDGGHGYDLWGPGTLVTVSS
notes: also called EpCAM/CLEC5A (2+2 A) Fc-optimized antibody; EpCAM/CLEC5A bispecific antibody
B2 was tested, and the “IC50 (nM), DLD-1 cell killing” value (EpCAM on DLD-1 cells [4]) was 0.0035 nM, the EC50 [2] was 0.064 µg/mL and the EC50 [3] was 7.35 nM. It also gave an EC50 (EpCAM on DLD-1 cells [5]) of 1.1 nM.

B3: anti-EpCAM antibody (Solitomab EpCAM binding part IgG form) (antibody, V domains shown)
VH: QVQLQQSGAELVRPGTSVKVSCKASGYAFTNYLIEWVKQRPGQGLEWIGVINPGSGGTNYNEKFKGKATLTADKSSSTAYMQLSSLTSDDSAVYFCARDGPWFAYWGQGTLVTVSA
VL: NIVMTQSPKSMSMSVGERVTLTCKASENVVTYVSWYQQKPEQSPKLLIYGASNRYTGVPDRFTGSGSATDFTLTISSVQAEDLADYHCGQGYSYPYTFGGGTKLEIK
notes: IgG form
In the case of B3, the “IC50 (nM), DLD-1 cell killing” value (EpCAM on DLD-1 cells [4]) is reported as 0.0812 nM and the EC50 (EpCAM on DLD-1 cells [5]) is reported as 0.67 nM.

B4: 5C7, chimeric rabbit/human IgG1 anti-CLEC5A antibody (Fc-silenced) (antibody, V domains shown)
VH: QSLEESGGDLVKPGASLTLTCTASGFSFSRSSYMCWVRQAPGKGLEWIGCLSVGDGHTYYASWAKGRFTISKTSSTSVTLQMTRLTAADTATYFCARAPSYSGDGGHGYDLWGPGTLVTVSS
VL: AIVMTQTPSSKSVPVGDTVTINCQASESVDRNNRLAWFQQKPGQPPKLLIYTTSTLASGVPSRFKGSGSGTHFTLTISDVVPDDAATYYCAGYRGAHTDGDAFGGGTEVVVK
notes: also called ch5C7; 5C7 Fc-silenced
B4 gave an EC50 [6] of 0.194 nM, an EC50 [7] of 0.9 nM and an EC50 [2] of 0.158 µg/mL. The EC50 [8] was 3.93 nM, the EC50 [3] was 0.49 nM and the “EC50 (read off the curve)” value [9] was about 0.8 nM. For the same binder, the Kd [10] was 0.15 nM, the koff [10] was 0.000189 s⁻¹ and the kon [10] was 1.26e+06 M⁻¹ s⁻¹. The Kd [11] was 0.15 nM, the koff [11] was 0.000189 s⁻¹ and the kon [11] was 1.26e+06 M⁻¹ s⁻¹. It also gave a Kd [12] of 0.15 nM, a koff [12] of 0.000189 s⁻¹ and a kon [12] of 1.26e+06 M⁻¹ s⁻¹. For the same binder, the Kd [13] was 0.15 nM, the koff [13] was 0.000189 s⁻¹ and the kon [13] was 1.26e+06 M⁻¹ s⁻¹.
